Values belong to the binder of their own block, whether it stands above or below them.
Assays:
H1.2 = H1.2 (Homo sapiens, UniProt P16403 1-213); assay: condensate FRAP; 5 uM histone, 5 uM DNA; Condensates: 1x PBS, RT; array EMSA: agarose gel with competitor DNA, buffer not in the material; settings: protein: recombinant; tags: C-terminal His6; label: Atto-390 at 5' end of the reverse strand; blunt
[1] = biological target: T1, linker histone H1.2 (unmodified, recombinant) (human, UniProt P16403 1-213); assay: cross-linking; XL-MS: histone/Ub and SIRT1 at molar ratio 1:1 in 1x PBS, 2.75 mM BS3-H12/D12, 10 min on ice then 20 min at 30 °C; three biological replicates; settings: both partners purified
T1 construct: human linker histone H1.2; also called non-modified H1.2; unmodified H1.2; source: E. coli BL21 (DE3), purified from inclusion bodies (His-tag resin); not shown: Strep-tag II, N-terminal, kept; His6, C-terminal, kept
T1 sequence (P16403 whole entry): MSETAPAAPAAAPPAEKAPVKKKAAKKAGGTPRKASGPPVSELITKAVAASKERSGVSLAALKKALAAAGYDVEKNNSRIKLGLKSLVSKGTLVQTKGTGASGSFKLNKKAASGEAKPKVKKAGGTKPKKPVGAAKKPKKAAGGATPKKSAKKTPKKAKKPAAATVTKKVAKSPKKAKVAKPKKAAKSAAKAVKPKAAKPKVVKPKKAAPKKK

Sequence of H1.2 (P16403 whole entry): as above

B1: 601 DNA (dsDNA)
DNA 1: CTATACGCGGCCGCCCTGGAGAATCCCGGTGCCGAGGCCGCTCAATTGGTCGTAGCAAGCTCTAGCACCGCTTAAACGCACGTACGCGCTGTCCCCCGCGTTTTAACCGCCAAGGGGATTACTCCCTAGTCTCCAGGCACGTGTCAGATATATACATCCTGTGCATGTGGATCCGAAT
DNA 2: ATTCGGATCCACATGCACAGGATGTATATATCTGACACGTGCCTGGAGACTAGGGAGTAATCCCCTTGGCGGTTAAAACGCGGGGGACAGCGCGTACGTGCGTTTAAGCGGTGCTAGAGCTTGCTACGACCAATTGAGCGGCCTCGGCACCGGGATTCTCCAGGGCGGCCGCGTATAG
binding result (H1.2): binds

binding result [1]: binds
B2: SIRT1 with N-terminal deletion (recombinant) (enzyme, human, UniProt Q96EB6 1-3, looked up)
chain: MADEAAAAGGEQEAQATAAAGEGDNGPGLQGPSREPPLADNLYDEDDDDEGEEEEEAAAAAIGYRDNLLFGDEIITNGFHSCESDEEDRASHASSSDWTPRPRIGPYTFVQQHLMIGTDPRTILKDLLPETIPPPELDDMTLWQIVINILSEPPKRKKRKDINTIEDAVKLLQECKKIIVLTGAGVSVSCGIPDFRSRDGIYARLAVDFPDLPDPQAMFDIEYFRKDPRPFFKFAKEIYPGQFQPSLCHKFIALSDKEGKLLRNYTQNIDTLEQVAGIQRIIQCHGSFATASCLICKYKVDCEAVRGDIFNQVVPRCPRCPADEPLAIMKPEIVFFGENLPEQFHRAMKYDKDEVDLLIVIGSSLKVRPVALIPSSIPHEVPQILINREPLPHLHFDVELLGDCDVIINELCHRLGGEYAKLCCNPVKLSEITEKPPRTQKELAYLSELPPTPLHVSEDSSSPERTSPPDSSVIVTLLDQAAKSNDDLDVSESKGCMEEKPQEVQTSRNVESIAEQMENPDLKNVGSSTGEKNERTSVAGTVRKCWPNRVAKEQISRRLDGNQYLFLPPNRYIFHGAEVYSDSEDDVLSSSSCGSNSDSGTCQSPSLEEPMEDESEIEEFYNGLEDEPDVPERAGGAGFGTDGDDQEAINEAISVKQEVTDMNYPSNKS
notes: human NAD+-dependent deacetylase SIRT1, aa 1-3 (construct of 669 aa: aa 1-3 + 82-747); human NAD+-dependent deacetylase SIRT1, aa 82-747 (construct of 669 aa: aa 1-3 + 82-747); source: E. coli BL21 (DE3), purified (HisTrap FF, size-exclusion chromatography); not shown: His6, C-terminal, kept

From publication PMC8190259, “Site-specific ubiquitylation acts as a regulator of linker histone H1” (Nature Communications, 2021)
